Experimental data published in the nanobody polyreactivity screen of Harvey et al. (2022).

Assay: yeast display, Sf9 membrane polyspecificity reagent, FACS + sequencing; frameworks hold sequencing errors
Outline: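 Nanobodies from a synthetic yeast display library (Saccharomyces cerevisiae BJ5465), induced 36–48 hours with galactose, were stained 1 hour at 4 °C with 10% biotinylated, detergent-solubilized Sf9 membrane reagent, enriched on streptavidin microbeads, then FACS-sorted. Anti-HA (expression) and streptavidin (reagent binding) fluorescence set low and high (top ~1%) gates. Polyreactivity labels come from the gate of origin. Genes were colony-PCR amplified, MiSeq 2 × 250 sequenced and filtered by CDR length.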

Sequence | polyreactivity (PSR sort gate)
QVQLVESGGGLVQAGGSLRLSCAASGIIFYYYTIGWYRPAPGKERELVASITWSGGGSTYYADSVKGRFTISRDNAKNTVYLQMNCLNPEDTAVYYCNADEYYSYYYWGQGTQVTVSS | low polyreactivity
QVQLVESGGGLVQAGGSLRLSCAASGSTISYNAMGWYRQAPGKERELVAAIRTSGGRTYYADSVKGRFTISRDNAKNTVYLQMNSLKPEDTAVYYCAKRWVYRYGYEYWGQGTQVTVSS | high polyreactivity
QVQLVESAGGLVQAGGSLRLICAASGSNFRRYAMGWYRQAPGKERELVAAITENTTSTNYADSVKGRFTISRDNAKNTVYLQMNSLKPEDTAVYYCAAETFATSGEMYYWGQGTQVTVSS | low polyreactivity
QVQLVESGGGLVQAGGSLRLSCAASVFTFDENAMGWYRQAPGINYSGASTYYADSVKGRFTISRDNAKNTVYLQMNSLKPDDTAVYYCAAEVVAQMNYWGQGTQVTVSS | low polyreactivity
HVQLQESGGGLVQVGGSLRLSCAASGTIFIYGFLGWNRQAPGKERELVASINLGGITNYADSVKGRFTIRRDNAKNTVYLQMISLKPEDTAVYYCAAYVVTGQNYGYWGQGTQVTVSS | low polyreactivity
QVQLVESGGGLVQAGGSLRLSCAAYGFTFWWYAMGWYRQAPGNERELVAAISASGASTYYADSVKGRFTISRDNAKNTVYLQMNSLKPEDTAVYYCAVVGLLRLYYWGQGTQVTVSS | high polyreactivity
QVQLVESGGGLVQAGGSLRLSCAASGSTFGHNVMGWYRQSPGKERELVAAISTSGGRTYYADSVKGRFTISRDNAKNTVYLQMNSLKPEDTAVYYCAARVYSTSVVAYYYWGQGTQVTVSS | high polyreactivity
QVQLVESGGGLVQAGGSLRLSCAASGSTLTFNAMGWYRQAPWKERELVAAISWSDTDTYYADSVKGRFTISRDNAKNTVYLQMNSLKPEDTAVYYCAATLSAYEMDYWGQATQVTVSS | low polyreactivity
QVQLVESGGGLVQAGGSLRLSCAASGYTFDANDMGWYRQAPGTERELVARITWTGGNTYADSVKGRFTISRDNAKNTVYLQMNSLKPEDTAVYYCNAELGYVSSENYWGQGTQVTVTS | low polyreactivity
QVQLEESGGGLVQAGGSLRLSCAASGFTFLYNAMGWYRQAPGKERELVASINSGGSTNYADSVKGRVTISRDNAKNTVYLQMNSLKPEDTAVYYCNAKRHVRKGDYWGQGTQVTVSS | low polyreactivity
QVQLVESGGGLVQAGGSLRLSCAASGSTSSLYTMGWYRQAPGKERELVAAITRSGGGTYYADSVKGRFTSSRDNAKNTVYLQMNSLKPEDTAVYYCAAVQSEGRMGYWGQGTQVTVSS | high polyreactivity
QVQLVESGGGLVQAGGSLRISCAASGLIFYGYVMGWYRQAPGKEREFVAAITLSGGRTYYADSVKGRFTISRDNAKNTVYLQMNSLKPEDTAVYYCAARGPFRPYGAVGRQYDYWGQGTQVTVSS | high polyreactivity
QVQLVESGGGLVQAGGSLRLTCAASGSILDYYVMGWYRQAPAKEREMVAAIRGGGSTYYADSVKGRFTISRDNAKNTVYLQMNSLKPEDTAVYYCAKDSQTARDFDYWGQGSQVTVSS | low polyreactivity
QVQLVESGGGLVQAGGSLRLSCAASGSTFQPYAMGWYRQAPGKEREFVAAIRWGTGSTYYADSVKGRFTISRDNAKNTVYLQMNILKPEDTAVYYCAKRRVSASREYYWGQGTQVTVSS | high polyreactivity
QVQLVESGGGLVQAGGSLRLSCAASGLTSYSYAMGWYRPAPGKERELVAAITVNGGRTYYADSVKGRFTISRDNAKNTVYLQMNSLKPEDTAVYYCAAREVTGRPRSYYYWGQGTQVTVSS | low polyreactivity
QVQLVESGGGLVQAGGSLRLSCAASGITFRYYAMGWYRQAPGKERELVAAISYSGGSTYYADSVKGRFTISRDNAKNTVYLQMNRLKPEDTAVYYCNRVWTRLVTYPEYDYWGQGTQVTVSS | high polyreactivity
QDQLVESGGGLVQAGGSLRLSCAASGSTFTTNVMGWYRQAPGKERELVAAISWSSGSTYYADSVKGRFTISRDNAKNTDYLQMNSLKPEDTAVYYCAARLVIFYPYSRYYYWGQGTQVTVSS | high polyreactivity
QVQLVESGGGLVQAGCRLRLSCAASGSIIYRKAMGWYRQAPGKERQLVAAISARGGRTNYAVSVKGRFTISRDNAKNTVYLQLYSLNPEDTAVYYCNTADSWYHRSQAYDYWGQGTQVTVSS | high polyreactivity
QVQLVESGGGLVQAGGSLRLSCAASGRIFQRYAMGWSRQAPGKERELVAPISWSVSSTYYADSVKGRFTISRDNAKNTVYLQMNSLKPEDTAVYYCNAAFHVTLGYLYREYDYWGQGTQVTVSS | high polyreactivity
QVQLVESGGGLVQAGGSLRLSCAASGITFRRNAMGWYRQAPGTERELVAGISGRGGSTYYADSVKGRFTISRDNAKNTVYLQMNSLKPEDTAVYYCAAVRFRTPTLEYWTRYDYWGQGTQVTVSS | high polyreactivity
QVQLVESGGGLVQAGGSLRLSCAASGFIFEYYAMGWYRQAPGKERELVAAISQSGGSTYYADSVKGRFTISRDNAKNTVYLQMNSLKPEDTAVYYCNKTRYSRSYYEYDYWGQGTQVTVSS | low polyreactivity
